Measurements reported in PMC6587167.

Experiments:
[1] = dual luciferase Sox2 reporter; conditions: glycan lost; control: untreated / control siRNA / scrambled control
[2] = western blot, S2VP10 and L3.6PL; conditions: glycan lost; control: untreated cells
[3] = cycloheximide chase, western blot, endogenous Sox2; conditions: glycan lost; control: untreated / scrambled control S2VP10
western blot, MIA-PACA2 = conditions: glycan lost; control: wild-type Sox2 overexpression

Substance | other: transcriptional activity [1] | expression_or_secretion [2] | degradation_or_half_life [3] | expression_or_secretion (western blot, MIA-PACA2)
SOX2: OSMI | decreases | decreases | decreases | 
SOX2: S246A |  |  |  | decreases
SOX2: siOGT | decreases |  |  | 
